Our source for the percent of eluted protein < 80 kDa (monomeric) values is paper PMC7835520.

Common to all, as to assay: SEC; cleared, microfiltered serum-containing supernatant of transfected Bosc23 cells; Superdex 200 10/300 GL in PBS at 4°C; fractions TCA precipitated and immunoblotted with α-Shh or α-StrepII antibodies; total eluted protein set to 100%, monomeric (< 80 kDa) versus multimeric (> 80 kDa)
For orientation: Size exclusion chromatography separates by hydrodynamic size, large species first.

Assay [1] has as its target Shh^HA, Shh with an HA tag inserted into the C-terminal peptide (Mus musculus).
In assay [2] the target is Shh^Strep, Shh with a StrepII tag inserted into the C-terminal peptide (Mus musculus).
Assay [3] concerns the target Sonic hedgehog (Shh), untagged (Mus musculus).
The target in assay [4] is ^HAShh^HA, Shh with HA tags in both terminal peptides (Mus musculus).

In assay [1], “Shh^HA, Shh with an HA tag inserted into the C-terminal peptide (ligand)” displayed a percent of eluted protein < 80 kDa (monomeric) of 65%.

As to “Shh^Strep, Shh with a StrepII tag inserted into the C-terminal peptide (ligand)”, the percent of eluted protein < 80 kDa (monomeric) in assay [2] was 80%.

In assay [3], Sonic hedgehog (Shh), untagged (ligand) had a percent of eluted protein < 80 kDa (monomeric) of 15%.

Turning to “^HAShh^HA, Shh with HA tags in both terminal peptides (ligand)”, in assay [4], the percent of eluted protein < 80 kDa (monomeric) amounted to 56%.
